Data taken from publication PMC5071332.

Experiments:
Experiment in all cases: immunostaining of cells or tissue; cell-surface binding assay: HEK293T cells expressing WT or mutant HA-tagged Slitrks incubated with 10 μg/ml control IgC or Ig-PTPδ; immunofluorescence imaging of Ig-fusion proteins and HA; percentage of cells exhibiting binding
[1] = molecular target: HA-tagged Slitrk1[N400I] (human) (UniProt Q96PX8)
[2] = molecular target: HA-tagged Slitrk1[R584K] (human) (UniProt Q96PX8)
[3] = molecular target: HA-tagged Slitrk1[S593G] (human) (UniProt Q96PX8)
[4] = molecular target: HA-tagged Slitrk1[T418S] (human) (UniProt Q96PX8)
[5] = molecular target: HA-tagged Slitrk2[L626F] (human) (UniProt Q9H156)
[6] = molecular target: HA-tagged Slitrk2[R32L] (human) (UniProt Q9H156)
[7] = molecular target: HA-tagged Slitrk2[S549F] (human) (UniProt Q9H156)
[8] = molecular target: HA-tagged Slitrk2[S601P] (human) (UniProt Q9H156)
[9] = molecular target: HA-tagged Slitrk2[V89M] (human) (UniProt Q9H156)
[10] = molecular target: HA-tagged Slitrk4[I578V] (human) (UniProt Q8IW52)
[11] = molecular target: HA-tagged Slitrk4[V206I] (human) (UniProt Q8IW52)
[12] = molecular target: HA-tagged full-length Slitrk1 wild type (human) (UniProt Q96PX8)
[13] = molecular target: HA-tagged full-length Slitrk2 wild type (human) (UniProt Q9H156)
[14] = molecular target: HA-tagged full-length Slitrk4 wild type (human) (UniProt Q8IW52)

With “recombinant Ig-fusion protein of PTPδ (IgC-PTPδ) (from UniProt P23468 21-1912) (Fc fusion)” the percentage of cells exhibiting the binding of Ig-PTPδ [1] was 32%, the percentage of cells exhibiting the binding of Ig-PTPδ [2] was 62% and the percentage of cells exhibiting the binding of Ig-PTPδ [3] was 68.7%. It also gave a percentage of cells exhibiting the binding of Ig-PTPδ [4] of 41%, a percentage of cells exhibiting the binding of Ig-PTPδ [5] of 76% and a percentage of cells exhibiting the binding of Ig-PTPδ [6] of 82%. For the same substance, the percentage of cells exhibiting the binding of Ig-PTPδ [7] was 68.8%, the percentage of cells exhibiting the binding of Ig-PTPδ [8] was 80% and the percentage of cells exhibiting the binding of Ig-PTPδ [9] was 81%. It also gave a percentage of cells exhibiting the binding of Ig-PTPδ [10] of 22.2%, a percentage of cells exhibiting the binding of Ig-PTPδ [11] of 24% and a percentage of cells exhibiting the binding of Ig-PTPδ [12] of 66.7%. The percentage of cells exhibiting the binding of Ig-PTPδ [13] was 71% and the percentage of cells exhibiting the binding of Ig-PTPδ [14] was 81%.
